The text below walks through data of article doi:10.1101/546648 (bioRxiv, 2019).

This series concerns the molecule itself. The series is described as follows: crystal structure.

B1: Homo sapiens REXO2 (enzyme)
chain: MAAGESMAQRMVWVDLEMTGLDIEKDQIIEMACLITDSDLNILAEGPNLIIKQPDELLDSMSDWCKEHHGKSGLTKAVKESTITLQQAEYEFLSFVRQQTPPGLCPLAGNSVHEDKKFLDKYMPQFMKHLHYRIIDVSTVKELCRRWYPEEYEFAPKKAASHRALDDISESIKELQFYRNNIFKKKIDEKKRKIIENGENEKTVS
With B1, the binding result is recorded as “binds”.
